Biological target: RBD derived from the Omicron strain (BA.1 strain; B.1.1.529) (SARS-CoV-2)

Question: Which binding inhibition rate (%) does the source give for ADG2 (antibody) here?
Answer: < 80%

Question: For AZD1061 (antibody), which binding inhibition rate (%) is on record?
Answer: < 80%

Question: AZD8895 (antibody) was tested. Which binding inhibition rate (%) did it give?
Answer: < 80%

Question: With LY_CoV16 (antibody) as the substance, how does the binding inhibition rate (%) read?
Answer: < 80%

Question: Which binding inhibition rate (%) does the source give for LY_CoV555 (antibody) here?
Answer: < 80%

Question: With REGN10933 (antibody) as the substance, how does the binding inhibition rate (%) read?
Answer: < 80%

Question: REGN10987 (antibody) was tested. Which binding inhibition rate (%) did it give?
Answer: < 80%

Question: For S309 (antibody), which binding inhibition rate (%) is on record?
Answer: < 80%
